Measurements as given in the RNAGym collection of RNA variant scans (doi:10.1073/pnas.2313332121).

B1: TPR t1 (parent)
chain: GACCAAUCUGCCCUCAGAGCUCGAGAACAUCUUCGGAUGCAGAGGAGGCAGGCUUCGGUGGCGCGAUAGCGCCAACGUCCUCAACCUCCAAUGCAUCCCACCACAUGAUGAUGCCUGAAGAGCCUUGGUUUUUUG

Variants of: B1
Test: polymerase ribozyme fitness, log enrichment relative to wild type (log ratio); higher = more active; in vitro selection for triplet polymerase activity
Outline: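 A heterodimeric triplet polymerase ribozyme had each of its subunits mutagenized by PCR into a library, which was transcribed. One round of in vitro selection, done in triplicate, annealed each library with a biotinylated primer, its partner subunit and triplets, then incubated it frozen at −7 °C before gel excision of extended constructs, streptavidin-bead capture and RT-PCR. Fitness is the logarithm of genotype enrichment relative to wild-type enrichment, based on Illumina sequencing of inputs and outputs and inverse-variance-weighted replicate averages. A base-2 logarithm is used, and genotypes were kept only with ≥10 input reads and ≥1 read per output.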

Row | Variant | polymerase ribozyme fitness (log ratio)
1 | GACCAAUCUGCCCUCAGAGCUCGAGAACAUCUUCGGAUGCAGAGGAGGCAGGCUUCGGUGGCGCGAUAGCGCCAACGUCCUCAACCUCCCAUGCAUCUCACCACAUGAUGAUGCCUGAAGAGCCUUGGUUUUUUG | -2.83
2 | GACCAAUCUGCCCUCAGAGCUCGAGAACAUCUUCGGAUGCAGAGGAGGCAGGCUUCGGUGGCGCGAUAGCGCCAACGUCCUCAACCUCGAAUGCAUCCCACCACAUGAUGAUGCAUGAACAGCCUUGGUUUUUUG | -1.16
3 | GACCAAUCUGCCCUCAGAGCUCGAGAACAUCUUCGGAUGCAGAGGAGGCAGGCUUCGGUGGCGCGAUAGCGCCAACGUCCUCAACCUCUAAUGCAUCCCACCACAUGAUCAUGCCUGAAGAGCCUUGGUUUUUUG | -3.36
4 | GACCAAUCUGCCCUCAGAGCUCGAGAACAUCUUCGGAUGCAGAGGAGGCAGGCUUCGGUGGCGCGAUAGCGCCAACGUCCUCAACCUCUAAUGCAUCCCACCACAUGAUUAUGCCUGAAGAGCCUUGGUUUUUUG | -2.22
5 | GACCAAUCUGCCCUCAGAGCUCGAGAACAUCUUCGGAUGCAGAGGAGGCAGGCUUCGGUGGCGCGAUAGCGCCAACGUCCUCAACCUCGAAUGCAUCCCACCACAUGAUGAUGCCUGAAGAGCCUGGGUUUUUUG | -3.19
6 | GACCAAUCUGCCCUCAGAGCUCGAGAACAUCUUCGGAUGCAGAGGAGGCAGGCUUCGGUGGCGCGAUAGCGCCAACGUCCUCAACCUCUGAUGCAUCCCACCACAUGAUGAAGCCUGAAGAGGCUUGGUUUUUUG | 1.96
7 | GACCAAUCUGCCCUCAGAGCUCGAGAACAUCUUCGGAUGCAGAGGAGGCAGGCUUCGGUGGCGCGAUAGCGCCAACGUCCUCAACCUCUAAUGCAUCCCACCACAUGAUGAUGCCUGAAUAGCCAUGGUUUUUUG | -0.262
8 | GACCAAUCUGCCCUCAGAGCUCGAGAACAUCUUCGGAUGCAGAGGAGGCAGGCUUCGGUGGCGCGAUAGCGCCAACGUCCUCAACCUCUAAUGCAUCCCACCACAUGAUGAUGCCUGAAGAGCCUUGGGUUUUUG | -1.72
9 | GACCAAUCUGCCCUCAGAGCUCGAGAACAUCUUCGGAUGCAGAGGAGGCAGGCUUCGGUGGCGCGAUAGCGCCAACGUCCUCAACCUCUAAUGCAUCCCACCACAUGAUGAAGCCUGAAGAGCCUUGGUUUUUUG | -0.432
10 | GACCAAUCUGCCCUCAGAGCUCGAGAACAUCUUCGGAUGCAGAGGAGGCAGGCUUCGGUGGCGCGAUAGCGCCAACGUCCUCAACCUCUAAUGCAUCCCACCACAUGAUGAUGCCUGAAGAGCCUUCGUUUUUUG | -1.79
11 | GACCAAUCUGCCCUCAGAGCUCGAGAACAUCUUCGGAUGCAGAGGAGGCAGGCUUCGGUGGCGCGAUAGCGCCAACGUCCUCAACCUCGAAUGCAUCCCACCACAUGAUGAUGCCUGAAAAGCCUUGGUUUUUUG | -1.58
12 | GACCAAUCUGCCCUCAGAGCUCGAGAACAUCUUCGGAUGCAGAGGAGGCAGGCUUCGGUGGCGCGAUAGCGCCAACGUCCUCAACCUCGAAUGCAUCCCACCACAUGAUGAUGCGUGAAGAGCCUUGAUUUUUUG | -6.15
13 | GACCAAUCUGCCCUCAGAGCUCGAGAACAUCUUCGGAUGCAGAGGAGGCAGGCUUCGGUGGCGCGAUAGCGCCAACGUCCUCAACCUCUAAUGCAUCCCACCACAUGAUGAUGCCUGAAGAGCCUUGGUUUUUUU | -0.983
14 | GACCAAUCUGCCCUCAGAGCUCGAGAACAUCUUCGGAUGCAGAGGAGGCAGGCUUCGGUGGCGCGAUAGCGCCAACGUCCUCAACCUCUAAUGCAUCCCACCAUAUGAUGAUGCCUGAAGAGCCUUGGUUUUUUG | 0.00386
15 | GACCAAUCUGCCCUCAGAGCUCGAGAACAUCUUCGGAUGCAGAGGAGGCAGGCUUCGGUGGCGCGAUAGCGCCAACGUCCUCAACCUCUAAUGCUUCCCACCACAUGAUGAUGCUUGAAGAGCCUUGGUUUUUUG | -2.59
16 | GACCAAUCUGCCCUCAGAGCUCGAGAACAUCUUCGGAUGCAGAGGAGGCAGGCUUCGGUGGCGCGAUAGCGCCAACGUCCUCAACCUCUAAUGCAUCCCACCACAUGAUGAUGCCUGAAAAGCCUUGGGUUUUUG | -1.07
17 | GACCAAUCUGCCCUCAGAGCUCGAGAACAUCUUCGGAUGCAGAGGAGGCAGGCUUCGGUGGCGCGAUAGCGCCAACGUCCUCAACCUCGAAUGCAUCCCACCACAUGAUGAUGCCUGAAGAACCUUGGUUUUUUG | -3.38
18 | GACCAAUCUGCCCUCAGAGCUCGAGAACAUCUUCGGAUGCAGAGGAGGCAGGCUUCGGUGGCGCGAUAGCGCCAACGUCCUCAACCUCCCAUGCAUCCCAGCACAUGAUGAUGCCUGAAGAGCCUUGGUUUUUUG | -3.07
19 | GACCAAUCUGCCCUCAGAGCUCGAGAACAUCUUCGGAUGCAGAGGAGGCAGGCUUCGGUGGCGCGAUAGCGCCAACGUCCUCAACCUCUAAUGCAUCCCAUCACAUGAUGAUGCCUGAAGAGCCUUGGUUUUUUG | -1.33
20 | GACCAAUCUGCCCUCAGAGCUCGAGAACAUCUUCGGAUGCAGAGGAGGCAGGCUUCGGUGGCGCGAUAGCGCCAACGUCCUCAACCUCUAAUGCAUCCCACCACAUGAUGAUGCCUGAAGUGCCUUGGUUUUUUG | 2.14
21 | GACCAAUCUGCCCUCAGAGCUCGAGAACAUCUUCGGAUGCAGAGGAGGCAGGCUUCGGUGGCGCGAUAGCGCCAACGUCCUCAACCUCGAAUGCAUCCCACCAUAUGAUGAUGCCUGAAGAGCCUUGGUUUUUUG | -0.672

Row | Variant | polymerase ribozyme fitness (log ratio)
22 | GACCAAUCUGCCCUCAGAGCUCGAGAACAUCUUCGGAUGCAGAGGAGGCAGGCUUCGGUGGCGCGAUAGCGCCAACGUCCUCAACCUCGAAUGCAUCCCACCACAUGAUGAUGCCUGAAGAGUCUUGGUUUUUUG | -0.521
23 | GACCAAUCUGCCCUCAGAGCUCGAGAACAUCUUCGGAUGCAGAGGAGGCAGGCUUCGGUGGCGCGAUAGCGCCAACGUCCUCAACCUCCCAUGCGUCCCACCACAUGAUGAUGCCUGAAGAGCCUUGGUUUUUUG | -0.983
24 | GACCAAUCUGCCCUCAGAGCUCGAGAACAUCUUCGGAUGCAGAGGAGGCAGGCUUCGGUGGCGCGAUAGCGCCAACGUCCUCAACCUCGAAUGCAUCCCACCACAUGAUGAUCCCUGAAGAGCCUUGGUUUUUUG | -3.04
25 | GACCAAUCUGCCCUCAGAGCUCGAGAACAUCUUCGGAUGCAGAGGAGGCAGGCUUCGGUGGCGCGAUAGCGCCAACGUCCUCAACCUCUAAUGCAUCCCACCACAUAAUGAUGCCUGAAGAGCCUUGGUUUUUUG | -5.32
26 | GACCAAUCUGCCCUCAGAGCUCGAGAACAUCUUCGGAUGCAGAGGAGGCAGGCUUCGGUGGCGCGAUAGCGCCAACGUCCUCAACCUCCCAUGCAUCCCACCACAUGAUGAUGCCUGAAGAGCCUUGGUUUUUUG | -1.08
27 | GACCAAUCUGCCCUCAGAGCUCGAGAACAUCUUCGGAUGCAGAGGAGGCAGGCUUCGGUGGCGCGAUAGCGCCAACGUCCUCAACCUCGAAUGCAUCCCACAACAUGAUGAUGACUGAAGAGCCUUGGUUUUUUG | -5.12
28 | GACCAAUCUGCCCUCAGAGCUCGAGAACAUCUUCGGAUGCAGAGGAGGCAGGCUUCGGUGGCGCGAUAGCGCCAACGUCCUCAACCUCCCAUGCAUCCCACCACAUGAUGAUGCCUGCAGAGCCUUGGUUUUUUG | -2.82
29 | GACCAAUCUGCCCUCAGAGCUCGAGAACAUCUUCGGAUGCAGAGGAGGCAGGCUUCGGUGGCGCGAUAGCGCCAACGUCCUCAACCUCCCAUGCAUCCCACCACAUGAUGAUGCCUGUAGAGCCUUGGUUUUUUG | -0.0445
30 | GACCAAUCUGCCCUCAGAGCUCGAGAACAUCUUCGGAUGCAGAGGAGGCAGGCUUCGGUGGCGCGAUAGCGCCAACGUCCUCAACCUCUAAUGCAUCCCACCACAUGAUGAUCCCUGAACAGCCUUGGUUUUUUG | -3.26
31 | GACCAAUCUGCCCUCAGAGCUCGAGAACAUCUUCGGAUGCAGAGGAGGCAGGCUUCGGUGGCGCGAUAGCGCCAACGUCCUCAACCUCUCAUGCAUCCCACCACAUGAUGAUGCCUGAAGAGCCUUGGUUUUUUG | -0.815
32 | GACCAAUCUGCCCUCAGAGCUCGAGAACAUCUUCGGAUGCAGAGGAGGCAGGCUUCGGUGGCGCGAUAGCGCCAACGUCCUCAACCUCUAAUGCAUCCCACCACAUGAUGAUGCCUGAUGAGCCUUGGUUUUUUG | -2.2
33 | GACCAAUCUGCCCUCAGAGCUCGAGAACAUCUUCGGAUGCAGAGGAGGCAGGCUUCGGUGGCGCGAUAGCGCCAACGUCCUCAACCUCUAAUGCACCCCACCACAUGAUGAUGCCUGAAGAGCCUUGGUUUUUUG | -0.473
34 | GACCAAUCUGCCCUCAGAGCUCGAGAACAUCUUCGGAUGCAGAGGAGGCAGGCUUCGGUGGCGCGAUAGCGCCAACGUCCUCAACCUCUAAUGCAACCCACCACAUGAUGAUGCCUGAAGAGCCUUGGUUUUUUG | -1.3
35 | GACCAAUCUGCCCUCAGAGCUCGAGAACAUCUUCGGAUGCAGAGGAGGCAGGCUUCGGUGGCGCGAUAGCGCCAACGUCCUCAACCUCCCAUGCAUCCCACCACAUGAUGAUGCCUGAAGCGCCUUGGUUUUUUG | 0.757
36 | GACCAAUCUGCCCUCAGAGCUCGAGAACAUCUUCGGAUGCAGAGGAGGCAGGCUUCGGUGGCGCGAUAGCGCCAACGUCCUCAACCUCGAAUGCAUCCCAACACAUGAUGAUGCCUGAAGAGCCUUGGUUUUUUG | -2.55
37 | GACCAAUCUGCCCUCAGAGCUCGAGAACAUCUUCGGAUGCAGAGGAGGCAGGCUUCGGUGGCGCGAUAGCGCCAACGUCCUCAACCUCGAAUGCAUCCCACCACAUGAUGAUACCUGAAGAGCCUUUGUUUUUUG | -4.45
38 | GACCAAUCUGCCCUCAGAGCUCGAGAACAUCUUCGGAUGCAGAGGAGGCAGGCUUCGGUGGCGCGAUAGCGCCAACGUCCUCAACCUCGAAUGCAUCCCACCACAUGAUGAUGCCUGAAGAGCUUUGGUUUUUUG | 0.383
39 | GACCAAUCUGCCCUCAGAGCUCGAGAACAUCUUCGGAUGCAGAGGAGGCAGGCUUCGGUGGCGCGAUAGCGCCAACGUCCUCAACCUCUAAUGCAUCCCACCACAUGAUGAUGCCUGAAGAGCCUUGGUUUUUUG | -0.195
40 | GACCAAUCUGCCCUCAGAGCUCGAGAACAUCUUCGGAUGCAGAGGAGGCAGGCUUCGGUGGCGCGAUAGCGCCAACGUCCUCAACCUCGAAUCCAUCCCACCACAUGAUGAUGCCUGAAGAGCCUUGGUUUUUUG | -3.36
41 | GACCAAUCUGCCCUCAGAGCUCGAGAACAUCUUCGGAUGCAGAGGAGGCAGGCUUCGGUGGCGCGAUAGCGCCAACGUCCUCAACCUCUAAUGCAUCCCACCACAUGAUGAUGCCUGAAGAGCCUUGGUUUUAUG | -0.271
42 | GACCAAUCUGCCCUCAGAGCUCGAGAACAUCUUCGGAUGCAGAGGAGGCAGGCUUCGGUGGCGCGAUAGCGCCAACGUCCUCAACCUCUAAUGCAUCCCACCACAUGAUGAUGCCUAAAGAGCCUUGGUUUUUUG | -2.43
